Literature values as cited in paper PMC5423825.

Target: CFluc398 (FGG-tagged C-terminal firefly luciferase fragment) CFluc398 (Photinus pyralis) [luciferase: P08659]

Substance: NFluc437 (FGG-tagged N-terminal firefly luciferase fragment) NFluc437 (from UniProt P08659)
- Kd: 112 µM
